Measurements: the supplement of paper PMC10567573

B1: ZNF511 (parent)
chain: FDALDDYEHHYHTLHGNVCSFCKR
B2: VENTX (parent)
chain: VFQHHQYLSPLERKRLAREMQLSE

Variants of: B1
Experiment: protein stability index of a GFP-peptide fusion (GPS, HEK-293T) (PSI 1-6); higher = more stable
Conditions: c terminus: a fixed tail appended
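Further: lentivirally expressed fusions sorted by FACS into six bins by GFP to DsRed ratio, PSI derived from sequencing read proportions per bin multiplied by bin number.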

Protein stability index: each site, then its substitutions
E8: K 3.05; L 2.74; M 2.97; N 3.3; P 3.81; Q 3.63; R 3.55; S 3.35; T 3.67; V 2.87; W 2.69; Y 2.79
H9: A 3.57; C 4.26; D 3.69; E 3.71; F 3.03; G 4; I 3.39; K 3.43; L 2.86; M 3.44; N 2.8; P 3.8; Q 3.43; R 4.1; S 3.44; T 3.47; V 3.18; W 2.67; Y 2.65
H10: A 2.94; C 4.7; D 3.85; E 3.74; F 2.92; G 3.73; I 2.53; K 3.24; L 2.62; M 2.65; N 3.37; P 2.76; Q 3.48; R 3.59; S 3.06; T 3.4; V 2.46; W 3.04; Y 3.22
Y11: A 4.39; C 4.81; D 4.64; E 4.55; F 3.19; G 4.01; H 4.14; I 4.2; K 4.28; L 4.05; M 4.45; N 4.38; P 3.22; Q 4.93; R 4.61; S 4.14; T 4.62; V 4.49; W 2.34
H12: A 2.96; C 4.18; D 4.41; E 2.95; F 2.9; G 3.58; I 2.16; K 2.58; L 2.71; M 2.73; N 3.27; P 3.31; Q 3.3; R 3.36; S 3.12; T 3.29; V 3.27; W 2.38; Y 2.48
T13: A 3.82; C 4.5; D 3.91; E 4.27; F 2.65; G 4.15; H 4.17; I 3.19; K 3.4; L 3.24; M 3.5; N 3.56; P 4.19; Q 3.66; R 3.07; S 3.54; V 3.77; W 2.78; Y 2.92
L14: A 3.98; C 4.85; D 4.33; E 4.48; F 3.59; G 4.22; H 4.24; I 3.92; K 3.54; M 3.99; N 4.18; P 4.71; Q 4.28; R 3.63; S 4.08; T 4.04; V 4.53; W 3.17; Y 3.81
H15: A 3.86; C 3.89; D 3.97; E 4.36; F 2.26; G 3.92; I 3.55; K 3.61; L 2.6; M 3.88; N 3.96; P 3.3; Q 3.96; R 3.83; S 4.13; T 4.48; V 3.73; W 3.3; Y 3.23
G16: A 3.72; C 3.42; D 3.87; E 3.75; F 2.9; H 3.5; I 3.15; K 3.22; L 2.98; M 3.15; N 3.72; P 3.46; Q 3.3; R 3.47; S 3.37; T 3.47; V 2.96; W 2.66; Y 2.85
N17: A 3.55; C 2.5; D 4.23; E 3.96; F 3.1; G 3.64; H 3.64; I 3.25; K 3.22; L 2.29; M 3.54; P 3.16; Q 2.24; R 3.9; S 3.98; T 3.5; V 3.67; W 2.6; Y 2.93
V18: A 3.7; C 3.66; D 4.12; E 4.36; F 2.97; G 4.05; H 2.93; I 3.53; K 4.05; L 3.83; M 3.68; N 3.89; P 4.49; Q 4.18; R 3.88; S 3.82; T 3.76; W 2.8; Y 3.7
C19: A 3.11; D 3.36; E 3.21; F 2.24; G 2.9; H 3.19; I 2.66; K 3.27; L 3.71; M 2.63; N 3.13; P 3.1; Q 2.92; R 2.75; S 3.04; T 3.41; V 2.41; W 1.92; Y 2.2
S20: A 3.81; C 3.4; D 2.75; E 4.44; F 3.67; G 2.7; H 3.56; I 3.83; K 3.76; L 3.35; M 4.04; N 3.74; P 3.54; Q 3.85; R 3.27; T 3.81; V 3.64; W 2.63; Y 4.29
F21: A 4.3; C 3.59; D 4.62; E 4.18; G 4.35; H 4; I 4.22; K 4.2; L 4.01; M 3.71; N 4.15; P 3.49; Q 4.56; R 4.55; S 3.91; T 4.28; V 4.45; W 4.32; Y 3.64
C22: A 3.11; D 3.29; E 3.2; F 2.2; G 2.37; H 2.6; I 2.26; K 3.02; L 2.11; M 2.85; N 3.22; P 3; Q 3.15; R 2.73; S 3.31; T 2.59; V 3.04; W 1.96; Y 2.39
K23: A 3.47; C 3.25; D 3.45; E 3.97; F 2.67; G 4.15; H 3.07; I 2.89; L 3.03; M 3.92; N 3.96; P 3; Q 3.71; R 4.04; S 3.6; T 3.25; V 3.28; W 1.93; Y 2.59
R24: A 3.58; C 3.58; D 4.06; E 4.25; F 2.13; G 4.01; H 3.79; I 3.08; K 4.25; L 3.35; M 3.6; N 4.02; P 3.17; Q 4.25; S 3.8; T 3.84; V 3.1; W 2.95; Y 2.88

Variants of: B2
Experiment: as above
Conditions: c terminus: a fixed tail appended

Protein stability index: each site, then its substitutions
V1: A 2.28; C 2.45; D 2.83; E 2.49; F 2.1; G 2.09; H 2.34; I 2.36; K 2.6; L 3.38; M 2.38; N 2.9; P 2.35; Q 2.19; R 2.42; S 3.1; T 2.88; W 1.92
